Sequences and labels used below:
B1: 1139_P01_E04 scFv (scFv)
scFv: QVQLQQSGPGLVKPSQTLSLTCAISGDSVSSNSAAWNWIRQSPSRGLEWLGRTYYRSKWYNDYAVSVRSRITINPDTSKNQFSLQLNSVTPEDTAVYYCARSWNDAFDIWGQGTTVTVSSGGGGSGGGGSGGGASDIVMTQSPSTLSASIGDRVTITCRAGQSISTWLAWYQQKPGKAPKLLIYDASSLESGVPLRFSGSGSGTDFTLTISSLQPEDFATYYCQQSYSTPLTFGGGTKVEIK
B2: 1251_P02_C05 scFv (scFv)
scFv: EVQLLESGGGLVQPGGSLRLSCAASGFTFSSYAMSWVRQAPGKGLEWVSAISGGGGTTYSSDSVKGRFTISRDNSKNTLYLQMNSLRAEDTAVYYCARDSGVAFDIWGQGTLVTVSSGGGGSGGGGSGGGASDIQMTQSPSFLSASVGDRVTITCRASQNIRTWLAWYQQKPGRAPKLLIYDASSLESGVPSRFSGSGSGTDFTLTISSLQPEDFATYYCQQFKRYPPTFGLGTKVEIK
B3: 1251_P02_G10 scFv (scFv)
scFv: EVQLVESGGGLVQPGGSLRLSCAASGFTFSDYYMSWIRQAPGKGLEWVSYISSSGSTIYYADSVKGRFTISRDNAKNSLYLQMNSLRAEDTAVYYCARHSWNDAFDIWGRGTLVTVSSGGGGSGGGGSGGGASDIQMTQSPSSLSASVGDRVTITCRASQSISSHLNWYQQKPGKAPKLLIYAASSLQSGVPSRFSASGSGTDFTLTISSLQPEDFATYYCQQSYSTLLTFGGGTKVEIK
B4: 1245_P01_E07 scFv (scFv)
scFv: QVQLVESGGGLVKPGGSLRLSCAASGFTFSDYYMSWIRQAPGKGLEWVSYISSSGSTIYYADSVKGRFTISRDNAKNSLYLQMNSLRAEDTAVYYCARVDYADAFDIWGQGTLVTVSSGGGGSGGGGSGGGASDIQMTQSPSSLSASVGDRVTIACRAGQSIGTYLNWYQQKPGKAPKLLIYVASSLQSGVPSRFSGSGSGTEFTLTISSLQPEDFATYYCQQSYSTLLTFGRGTKVEIK
B5: 1252_P01_C08 scFv (scFv)
scFv: EVQLLESGGGLVQPGRSLRLSCAASGFTVSSNYMSWVRQAPGKGLEWVSVIYSGGSTYYADSVKGRFTISRDNSKNTLYLQMNSLRAEDTAVYYCASPIELGAFDIWGQGTLVTVSSGGGGSGGGGSGGGASSYELTQPPSVSVAPGKTARITCGGNNIGSQSVHWYQQKPGQAPMLVIYYDSDRPSGIPERFSGSNSGNTATLTISRVEAGDEADYYCQVWDSSSDHVVFGGGTKLTVL
B6: 1245_P02_F07 scFv (scFv)
scFv: QVQLQQSGPGLVKPSQTLSLTCVISGDSVSSNSAAWNWIRQSPSRGLEWLGRTYYRSKWYNDYAVSVKSRITINPDTSKNQFSLQLNSVTPEDTAVYYCARDYYYSMDVWGQGTMVTVSSGGGGSGGGGSGGGASDIQMTQSPSTLSASVGDRVTITCRASQSISSWLAWYQQKPGKAPKLLIYDASSLESGVPLRFSGSGSGTEFTLTISSLQPDDFATYYCQQSHSHPPTFGPGTKVDIK
B7: 1141_P01_E01 scFv (scFv)
scFv: QVQLVQSGAEVKKPGESLKISCKGSGYSFTSYWIGWVRQMPGKGLEWMGIIYPGDSDTRYSPSFQGQVTISADKSISTAYLQWSSLKASDTAMYYCARHQVDTRTADYWGQGTLVTVSSGGGGSGGGGSGGGASQSALTQPASVSGSPGQSVTISCTGTRSDVGGYNYVSWYQHHPGKAPKLMIYEVSNRPSGVSNRFSGSKSGNTASLTISGLQAEDEADYYCSSYTSTSTLVFGGGTKLTVL
B8: 1245_P01_G09 scFv (scFv)
scFv: QVQLQQSGPGLVKPSQTLSLTCAISGDSVSSNSAAWNWIRQSPSRGLEWLGRTYYGSKWYNEYALSVKSRIIINPDTSKNQFSLQLNSVTPEDTAVYYCARDYYYSMDVWGQGTLVTVSSGGGGSGGGGSGGGASDIVMTQSPSTLSASIGDRVTITCRAGQSISTWLAWYQQKPGKAPKLLIYDASSLESGVPLRFSGSGSGTEFTLAISSLQPDDFATYYCQQSYSTPVTFGQGTKVEIK
B9: 1245_P02_G04 scFv (scFv)
scFv: QVQLQQSGPGLVKPSQTLSLTCAISGDSVSSKSAAWNWIRQSPSRGLEWLGRTYYRSKWSTDYAASVKSRITINPDTSKNQLSLQLNSVTPEDTAVYYCARTWSGYVDVWGQGTLVTVSSGGGGSGGGGSGGGASDIQMTQSPPALSASVGDRVTITCRASQDINDWLAWYQHKPGKAPKLLIYDASSLESGVPSRFSGSGSGTEFTLTISSLQPDDFATYYCQQSYSTPQVTFGQGTRLEIK

L1 (DV1-GV4) (human), sequence (chain, as listed by the source, chain 1 of 2): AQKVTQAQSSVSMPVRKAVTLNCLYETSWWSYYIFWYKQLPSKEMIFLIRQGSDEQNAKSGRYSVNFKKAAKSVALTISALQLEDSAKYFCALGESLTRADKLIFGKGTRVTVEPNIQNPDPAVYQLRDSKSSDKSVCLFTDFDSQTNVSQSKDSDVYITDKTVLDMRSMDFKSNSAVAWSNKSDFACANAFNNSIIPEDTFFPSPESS
L1 (DV1-GV4) (human), sequence (chain, as listed by the source, chain 2 of 2): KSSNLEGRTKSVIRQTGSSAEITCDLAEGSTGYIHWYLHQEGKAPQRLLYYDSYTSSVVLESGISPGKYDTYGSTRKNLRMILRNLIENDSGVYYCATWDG

This experiment concerns the target L1 (DV1-GV4) (human). The experiment in a line: DELFIA affinity ranking, signal with 100 nM biotinylated L1.
B1 gave a 100 nM L1 of 23800.
As for B2, the figure is 65300.
B3: the 100 nM L1 was 17100.
As for B4, the figure is 163000; as for B5, 1980; as for B6, 10400.
Next, B7: 137000; B8: 18400.
Next, B9: 5900.

The record behind these values is EP4218932A2.
